The experiment has as its target 23C-176C double-cysteine mutant of full-length ClpB, labelled with Alexa Fluor 488 and Alexa Fluor 594 (Thermus thermophilus) (UniProt Q9RA63).

The record followed here is article PMC8056383.

23C-176C double-cysteine mutant of full-length ClpB, labelled with Alexa Fluor 488 and Alexa Fluor 594 (Thermus thermophilus), sequence (Q9RA63 whole entry R23C/D176C): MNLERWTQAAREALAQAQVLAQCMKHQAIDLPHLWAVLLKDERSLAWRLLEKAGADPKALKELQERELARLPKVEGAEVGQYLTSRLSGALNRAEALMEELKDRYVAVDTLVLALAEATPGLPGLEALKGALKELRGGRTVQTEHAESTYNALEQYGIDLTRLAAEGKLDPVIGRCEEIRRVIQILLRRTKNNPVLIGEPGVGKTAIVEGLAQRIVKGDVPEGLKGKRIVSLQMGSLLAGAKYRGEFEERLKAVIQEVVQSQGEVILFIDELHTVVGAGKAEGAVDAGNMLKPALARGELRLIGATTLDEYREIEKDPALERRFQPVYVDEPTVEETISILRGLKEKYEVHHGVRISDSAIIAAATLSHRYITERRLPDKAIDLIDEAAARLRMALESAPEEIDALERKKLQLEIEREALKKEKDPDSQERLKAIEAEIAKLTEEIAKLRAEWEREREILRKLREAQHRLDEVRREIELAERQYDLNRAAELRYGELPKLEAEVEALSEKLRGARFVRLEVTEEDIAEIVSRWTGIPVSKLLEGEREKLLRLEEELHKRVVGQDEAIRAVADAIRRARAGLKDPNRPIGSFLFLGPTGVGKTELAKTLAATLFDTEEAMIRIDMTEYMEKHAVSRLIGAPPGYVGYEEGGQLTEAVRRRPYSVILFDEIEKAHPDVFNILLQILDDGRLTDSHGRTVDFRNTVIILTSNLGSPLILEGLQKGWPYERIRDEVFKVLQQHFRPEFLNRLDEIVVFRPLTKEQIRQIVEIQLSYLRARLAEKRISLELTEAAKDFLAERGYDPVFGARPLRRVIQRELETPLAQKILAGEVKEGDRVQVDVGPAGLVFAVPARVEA

“κ-casein (from UniProt P02668 22-190) (natural protein)” displayed an ATPase activity of fully labeled 23C-176C ClpB with 25 μM κ-casein relative to basal of 3.1 fold.
